From paper PMC6879610

How the values were obtained:
Env HxB2 (HIV-1 (HxB2)) = Env HxB2 (HIV-1 (HxB2)) (UniProt P04578)
[1] = molecular target: Env Du156.12 (HIV-1 (Du156.12))

Substance	neutralisation of HxB2 (TZM-bl), fold decrease against PGZL1 (Env HxB2 (HIV-1 (HxB2)))	neutralisation of Du156.12 (TZM-bl), fold decrease against PGZL1 [1]
PGZL1 F100A IgG (antibody)	> 10 fold	> 10 fold
PGZL1 W99A IgG (antibody)	> 10 fold	> 10 fold
